In patent publication US20120283172A1:

target: human growth hormone receptor on IM-9 cells (human) (UniProt P10912); assay: not given
UniProt P10912, sequence (P10912 19-638): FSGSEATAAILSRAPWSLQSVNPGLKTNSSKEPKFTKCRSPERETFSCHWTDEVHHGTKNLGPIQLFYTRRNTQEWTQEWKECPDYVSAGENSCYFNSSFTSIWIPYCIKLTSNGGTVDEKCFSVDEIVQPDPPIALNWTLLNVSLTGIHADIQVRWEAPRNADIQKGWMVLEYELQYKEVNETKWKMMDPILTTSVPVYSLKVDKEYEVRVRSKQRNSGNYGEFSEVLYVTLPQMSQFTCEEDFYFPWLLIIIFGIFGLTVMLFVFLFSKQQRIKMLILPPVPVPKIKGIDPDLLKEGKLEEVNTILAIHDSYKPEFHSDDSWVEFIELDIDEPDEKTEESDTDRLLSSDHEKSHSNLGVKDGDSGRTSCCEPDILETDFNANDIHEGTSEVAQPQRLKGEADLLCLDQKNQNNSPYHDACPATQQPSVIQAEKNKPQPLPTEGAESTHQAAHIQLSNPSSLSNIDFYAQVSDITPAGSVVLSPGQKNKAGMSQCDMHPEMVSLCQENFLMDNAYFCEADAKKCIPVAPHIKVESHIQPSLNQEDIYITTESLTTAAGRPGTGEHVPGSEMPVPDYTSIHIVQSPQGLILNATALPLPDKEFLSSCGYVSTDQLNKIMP

Row | EC50, STAT5 phosphorylation in IM-9 cells (intracellular phospho-STAT5 staining, FACS, MFI PE) | Substance
1 | 1.5 nM | (His)F92pAF-5K (ligand)
2 | 4.1 nM | (His)F92-pAF-30K (ligand)
3 | 0.9 nM | hGH F92pAF (from UniProt P01241 27-217) (ligand)
4 | 4.6 nM | (His)F92pAF-20K (ligand)

target: human growth hormone receptor on IM-9 cells (human) (UniProt P10912); assay: not given; remark: another data set of the same source

Row | EC50, STAT5 phosphorylation in IM-9 cells (intracellular phospho-STAT5 staining, FACS, MFI PE) | Substance
5 | 1.1 nM | hGH F92pAF (from UniProt P01241 27-217) (ligand)

target: human growth hormone receptor on IM-9 cells (human) (UniProt P10912); assay: cell-based or functional assay

Row | EC50 of STAT5 phosphorylation in IM-9 cells (MFI by intracellular phospho-STAT5 staining) | Substance
6 | 0.9 nM | hGH E88pAF (from UniProt P01241 27-217) (ligand)
7 | 3.3 nM | hGH F139pAF (from UniProt P01241 27-217) (ligand)
8 | 1 nM | hGH Y111pAF (from UniProt P01241 27-217) (ligand)
9 | 1.3 nM | hGH A155pAF (from UniProt P01241 27-217) (ligand)
10 | 2 nM | hGH Q91pAF (from UniProt P01241 27-217) (ligand)
11 | 8.5 nM | hGH N99pAF (from UniProt P01241 27-217) (ligand)
12 | 130000 nM | hGH Y103pAF (from UniProt P01241 27-217) (ligand)
13 | > 200000 nM | rat growth hormone, wild type (from UniProt P01244 27-216) (ligand)
14 | 1 nM | hGH P133pAF (from UniProt P01241 27-217) (ligand)
15 | 0.9 nM | hGH T135pAF (from UniProt P01241 27-217) (ligand)
16 | 1.4 nM | hGH G136pAF (from UniProt P01241 27-217) (ligand)
17 | 2.7 nM | hGH K140pAF (from UniProt P01241 27-217) (ligand)
18 | 0.8 nM | hGH F92pAF (from UniProt P01241 27-217) (ligand)
19 | 16.7 nM | hGH S95pAF (from UniProt P01241 27-217) (ligand)
20 | 0.9 nM | hGH R134pAF (from UniProt P01241 27-217) (ligand)
21 | 0.8 nM | hGH G131pAF (from UniProt P01241 27-217) (ligand)
22 | 0.8 nM | His-tagged hGH Y143pAF (from UniProt P01241 27-217) (ligand)
